Columns and labels:
[1] = biological target: Grp94 N91C labeled with Alexa Fluor 555 (donor) and Alexa Fluor 647 (acceptor) (mouse) (UniProt P08113); assay: other fluorescence titration; bulk FRET of 125 nM donor- and acceptor-labeled Grp94 N91C, BiP NBD titrated, apo conditions; 30 °C, 25 mM Tris pH 7.5, 50 mM KCl, 1 mM BME, 1 mg/mL BSA; single-site fit; apparent
[2] = biological target: FITC-labeled BiP NBD (mouse); assay: fluorescence polarisation; 50 nM FITC-labeled BiP NBD constructs, Grp94 or Grp94 MD titrated; 25 mM Tris pH 7.5, 50 mM KCl, 1 mM ADP (hexokinase-treated), 1 mM DTT; single-site binding fit
[3] = biological target: FITC-labeled BiP_(D187A) NBD (mouse); assay: as above
[4] = biological target: FITC-labeled BiP_(I191A) NBD (mouse); assay: as above

Sequence of Grp94 (residues 72-765) with the charged-linker removed (Δ287-328) (P08113 other isoform, or with tags, fused parts or gaps mutant): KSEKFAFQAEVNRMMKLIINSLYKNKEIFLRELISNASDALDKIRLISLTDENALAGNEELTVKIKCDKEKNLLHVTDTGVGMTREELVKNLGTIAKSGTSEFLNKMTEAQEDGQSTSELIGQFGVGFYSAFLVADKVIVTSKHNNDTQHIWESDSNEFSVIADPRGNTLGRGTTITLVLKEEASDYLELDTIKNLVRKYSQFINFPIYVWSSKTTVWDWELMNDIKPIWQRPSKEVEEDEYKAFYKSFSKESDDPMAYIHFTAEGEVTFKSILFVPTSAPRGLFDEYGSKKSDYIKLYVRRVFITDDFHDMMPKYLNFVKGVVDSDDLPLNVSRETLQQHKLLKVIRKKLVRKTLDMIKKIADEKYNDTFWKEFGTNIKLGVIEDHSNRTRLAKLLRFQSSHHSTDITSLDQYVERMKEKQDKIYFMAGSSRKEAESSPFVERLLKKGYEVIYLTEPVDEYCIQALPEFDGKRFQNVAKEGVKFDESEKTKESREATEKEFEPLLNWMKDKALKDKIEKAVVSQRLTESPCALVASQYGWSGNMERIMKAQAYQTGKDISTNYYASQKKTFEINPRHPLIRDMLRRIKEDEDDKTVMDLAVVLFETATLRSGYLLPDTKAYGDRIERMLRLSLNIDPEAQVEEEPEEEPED
Sequence of Grp94 N91C labeled with Alexa Fluor 555 (donor) and Alexa Fluor 647 (acceptor) (mouse) (P08113 other isoform, or with tags, fused parts or gaps Δ287-328 | N91C | N91C): as the sequence (P08113 other isoform, or with tags, fused parts or gaps mutant) above, with N20C counted along it

Substance	Kd [1] [µM]	Kd [2] [µM]	Kd [3] [µM]	Kd [4] [µM]
BiP NBD (domain or fragment)	0.67	–	–	–
Grp94 (residues 72-765) with the charged-linker removed (Δ287-328) (from UniProt P08113 72-765) (natural protein)	–	1.4	8.2	9

Source: article PMC12000397
